{"source": "patent US7429564B2", "about": "“Oral insulin therapy” (Emisphere Technologies, Inc., priority 2002, dated 2008)", "key": {"[1]": {"assay": "Example 5: plasma insulin pharmacokinetics, healthy male volunteers", "conditions": "human, in vivo", "procedure": "In Group 1, there were four escalating single doses of 4-CNAB (400, 800, 1400 and 2000 mg) and each subject received either all four of these escalating doses or three escalating single doses and one dose of placebo. […] In Group 3 there were three escalating oral doses of Insulin/4-CNAB (100 Units/300 mg, 100 Units/450 mg and 150 Units/100 mg) and one SC dose of 150 Units of insulin. Each subject received either all four of these treatments or three of these treatments and one placebo treatment. For all groups, there was a washout period of at least 72 hours between treatment periods.\n(§1) For insulin/4-CNAB treatment Groups 2 and 3, subjects' blood samples (1 drop per sample) were drawn at 15 minutes before dosing, and at 5, 10, 15, 20, 25, 30, 35, 40, and 50 minutes and at 1, 1.25, 1.5, 1.75, 2, 2.5, 3, 4, 6, 8 and 12 hours post-dose (21 samples per treatment for Insulin/4-CNAB dosing groups) for plasma glucose, insulin and C-peptide measurements. For the 4-CNAB alone treatment Group 1, blood samples were collected before dosing (−15 minutes), and at 30 minutes and at 2 hr post-dose for blood glucose measurements. For the insulin alone control group (minimum 3 subjects), blood samples (3 mL in sodium heparin tube) were drawn at 15 minutes before dosing, and at 10, 20, 30, 40, 50 minutes and 1, 1.25, 2, 2.5, 3 and 6 hr post-dose (12 samples per treatment). The blood samples for glucose were assayed in real time using a Glucometer®. These measurements were used for detection of onset of hypoglycemia, so rescue action could be taken where necessary. Plasma glucose, insulin and C-peptide measurements were done according to standard procedures.\n(§2) On the basis of plasma concentrations of 4-CNAB and insulin, PK analysis was performed using non-compartmental PK methods as implemented in WinNonlin™ Professional version 3.2. The profiles for insulin and C-peptide corrected insulin were evaluated up to 6 hours as food was given 6 hours following insulin treatment. The following parameters were derived for 4-CNAB: Cmax, tmax, AUC(0-t), AUC(0-inf), AUC% Extrap, Kel, t1/2, CL/F, Vd/F, MRT(0-t), MRT(0-inf) and Frel. The following parameters were derived for insulin and C-peptide corrected insulin: Cmax, tmax, AUC(0-2), AUC(0-6), AUC(0-t) and concentrations (C^b) and corresponding time (t^b) immediately prior to intervention for hypoglycemia.\nThe plasma concentration-time profiles for 4-CNAB were evaluated in those subjects who received 4-CNAB or Insulin/4-CNAB treatments. Insulin, C-peptide and glucose concentration-time profiles following administration of all treatments were evaluated for the 20 subjects in Groups 2 and 3. Pharmacokinetic (“PK”) parameters for 4-CNAB, insulin and C-peptide corrected insulin, and pharmacodynamic (“PD”) parameters for glucose concentration change from baseline, respectively were calculated for subjects whether they required hypoglycemic rescue or not. Concentrations from subjects who required food/drink due to hypoglycemia were excluded from descriptive statistics."}, "[2]": {"set-up": "species or system rats", "conditions": "rat, in vivo, po", "procedure": "Similarly, for a fixed oral dose of 4-CNAB, insulin absorption increases with increasing doses of insulin. Oral insulin absorption was evaluated in rats at varying doses of both insulin and 4-CNAB. […] The mean peak serum insulin levels were 31, 44, 85, and 132 μU/mL respectively. Insulin absorption was dose dependent and increased as the dose of insulin increased. […] The mean peak serum insulin levels were 9, 39, 103, and 157 μU/mL, respectively. Insulin absorption was dose dependent and increased as the dose of 4-CNAB increased."}, "[3]": {"assay": "Example 5: C-peptide corrected insulin pharmacokinetics", "set-up": "species or system human", "conditions": "in vivo; for C-peptide corrected insulin AUC(0-2) / C-peptide corrected insulin AUC(0-6) / C-peptide corrected insulin tmax, median: human", "procedure": "as §2\nFor the PK analysis of insulin, analysis was conducted for both measured insulin and C-peptide corrected insulin concentrations. This was done using concentrations of the precursor C-peptide and the following equation: Corrected Insulin Concentration=Insulin Concentration−(Baseline Ratio×C-peptide) where"}, "plasma C-peptide": {"tested_on": "plasma C-peptide", "assay": "Example 5: plasma C-peptide", "assay_type": "in vivo, human", "procedure": "as §1, with “Plasma glucose, insulin and C-peptide measurements were done according to standard procedures.” left out\nPlasma C-peptide was measured using a DELFIA C-peptide kit, based on a solid phase, two-site fluoroimmunometric assay, which used the direct sandwich technique in which two monoclonal antibodies are directed against antigenic determinants on the C-peptide molecule. […] The fluorescence is directly proportional to the concentration of C-peptide in the sample."}, "rhesus monkeys": {"tested_on": "rhesus monkeys", "conditions": "rhesus monkey, in vivo, 14 days", "procedure": "The present invention comprising compositions of insulin and the delivery agent 4-CNAB was evaluated for safety and toxicity in a nonclinical program that included pharmacological screening, pharmacokinetic profiling, and toxicity assessments in rats and monkeys."}, "serum glucose": {"tested_on": "serum glucose", "assay": "Effective clinical dose of delivery agent in humans (delivery efficiency)", "assay_type": "in vivo, human", "procedure": "Next, delivery agents 1-3 were compared for the ability to efficiently transport an active agent across the GI mucosa in a biologically active form by determining the relationship between delivery agent dose, dose of active agent and the glucose response. The effective dose of delivery agent necessary to deliver a therapeutic dose of active agent and produce a therapeutic effect was measured. For delivery agent 3, the active agent was insulin, and the therapeutic effect was determined by the ability of the delivery agent/insulin combination to lower serum glucose by at least 10% within one hour post administration. For delivery agents 1 and 2, the active agent was heparin, and the therapeutic effect was determined by […]"}, "[4]": {"assay": "Example 7: 4-CNAB plasma concentrations", "assay_type": "in vivo, human", "conditions": "after start of meal intake; 200 or 400 mg 4-CNAB", "procedure": "Blood samples for determination of 4-CNAB plasma concentrations (2 mL in sodium heparin tube) were drawn 10, 20, 30, 40, 60, 90, 120, 240 and 360 minutes after start of meal intake (9 samples per session). Blood samples for determination of insulin and C-peptide plasma concentrations (5 mL in sodium heparin tube) were drawn at −60 and −30 minutes, at time 0 (start of meal intake), and after 10, 20, 30, 40, 50, 60, 75, 90, 105, 120, 150, 180, 210, 240, 300, and 360 minutes (19 samples per session). Plasma concentrations of insulin were determined by a GLP-validated microparticle enzyme immunoassay (MEIA)."}, "[5]": {"assay": "Delivery agent plasma concentrations in monkeys after oral administration", "assay_type": "in vivo", "procedure": "Similar results were obtained when delivery agents 1-3 were administered orally to monkeys and the plasma concentrations of the delivery agents monitored over time and the AUC calculated."}, "[6]": {"assay": "Example 5: safety and tolerability", "conditions": "4-CNAB alone, oral 400-2000 mg", "from_the_text": "Safety assessments included physical examinations, medical history, vital signs, 12-lead electrocardiogram (ECG) monitoring, laboratory evaluations and checking for adverse events. Activity parameters included blood glucose, insulin, C-peptide, and 4-CNAB plasma concentration measurements."}}}
{"compound": "oral insulin alone: recombinant human zinc insulin given orally without delivery agent", "values": [{"measurement": "Cmax", "setting": "[1]; po", "result": 0.0384, "unit": "nM"}, {"measurement": "Insulin AUC(0-2)", "setting": "[1]; po", "result": "51.8 ± 15.5", "unit": "pmol·h/L"}, {"measurement": "Insulin tmax, median", "setting": "[1]; po", "result": 0.43, "unit": "h"}, {"measurement": "Change in serum insulin levels", "setting": "[2]", "result": "did not result in any significant increases in serum insulin levels"}, {"measurement": "C-peptide corrected insulin AUC(0-2)", "setting": "[3]; po", "result": "10.8 ± 16.6", "unit": "pmol·h/L"}, {"measurement": "C-peptide corrected insulin AUC(0-6)", "setting": "[3]; po", "result": "21.5 ± 42.0", "unit": "pmol·h/L"}, {"measurement": "C-peptide corrected insulin tmax, median", "setting": "[3]; po", "result": 2.00, "unit": "h"}, {"measurement": "Change in C-peptide concentrations from baseline", "setting": "plasma C-peptide; 150 Units oral insulin alone", "result": "little change in C-peptide concentrations from baseline"}]}
{"compound": "SC insulin: human regular insulin injected subcutaneously (Humulin R or equivalent; Calbiochem insulin in the rat studies)", "values": [{"measurement": "Cmax", "setting": "[1]; sc", "result": 0.375, "unit": "nM"}, {"measurement": "Insulin AUC(0-2)", "setting": "[1]; sc", "result": "414.3 ± 181.5", "unit": "pmol·h/L"}, {"measurement": "Insulin AUC(0-6)", "setting": "[1]; sc", "result": "1228.5 ± 378.1", "unit": "pmol·h/L"}, {"measurement": "Insulin C^b (immediately prior to recovery from hypoglycemia)", "setting": "[1]; sc", "result": "168.3 ± 77.5", "unit": "pmol/L"}, {"measurement": "Insulin Cmax", "setting": "[1]; sc", "result": "54.5 ± 25.6", "unit": "uU/ml"}, {"measurement": "Insulin t^b, median (range)", "setting": "[1]; sc", "result": "1.00 (0.75-1.25) h"}, {"measurement": "Insulin tmax", "setting": "[1]; sc", "result": 1.75, "unit": "h"}, {"measurement": "Insulin tmax, median (range)", "setting": "[1]; sc", "result": "1.88 (1.58-4.00) h"}, {"measurement": "C-peptide corrected insulin AUC(0-2)", "setting": "[3]; sc", "result": "355.2 ± 170.2", "unit": "pmol·h/L"}, {"measurement": "C-peptide corrected insulin AUC(0-6)", "setting": "[3]; sc", "result": "942.8 ± 333.0", "unit": "pmol·h/L"}, {"measurement": "C-peptide corrected insulin tmax, median", "setting": "[3]; sc", "result": 1.88, "unit": "h"}, {"measurement": "C-peptide corrected insulin C^b", "setting": "[3]; sc", "result": "159.5 ± 75.6", "unit": "pmol/L"}, {"measurement": "C-peptide corrected insulin t^b, median", "setting": "[3]; sc", "result": 1.00, "unit": "h"}, {"measurement": "% Max C-peptide Reduction", "setting": "plasma C-peptide; 10 Units SC, carrier 0, unaudited data", "result": "54.3 ± 9.8", "unit": "%"}]}
{"compound": "O=C(O)CCCNC(=O)c1ccc(Cl)cc1O", "note": "[4-CNAB, 4-[(4-chloro, 2-hydroxybenzoyl)amino]butanoic acid]", "values": [{"measurement": "Highest proposed human dose (2000 mg) fold lower than NOAEL in monkeys", "setting": "rhesus monkeys", "result": "12-16 fold"}, {"measurement": "Effective clinical dose of delivery agent", "setting": "serum glucose; active agent insulin, lowers serum glucose by at least 10% within one hour", "result": 200, "unit": "Mg"}, {"measurement": "Fold more efficient in facilitating transit across the GI mucosa vs delivery agent 1", "setting": "serum glucose; effective dose ratio", "result": "approximately 12 fold"}, {"measurement": "Fold more efficient in facilitating transport across the GI mucosa vs delivery agent 2", "setting": "serum glucose; effective dose ratio", "result": 7.5, "unit": "fold"}, {"measurement": "4-CNAB plasma concentration after 2 hours relative to level at 10 minutes", "setting": "[4]", "result": "less than 10%"}, {"measurement": "Fold greater penetration of the GI mucosa vs delivery agent 1", "setting": "[5]; 300 mg oral each", "result": "more than 11 fold"}, {"measurement": "Fold greater penetration of the GI mucosa vs delivery agent 2", "setting": "[5]; 300 mg oral each", "result": "more than 6 fold"}, {"measurement": "AUC", "setting": "[5]; monkey, plasma, oral, 300 mg", "result": 499, "unit": "ng·h/mL"}, {"measurement": "Tolerability", "setting": "[6]", "result": "well tolerated"}]}
